Experimental data reported in patent US9119806B2, “Culturing circular ssDNA viruses for the production of vaccines” (priority 2007, dated 2015).

What was measured:
[1] = test system: PCV2-infected 3D4/31 cells; assay: Number of PCV2-infected 3D4/31 cells (IPMA) after cytokine treatment; type: cell-based, Porcine circovirus 2; conditions: for increase in PCV2-positive cells: 3D4/31
Source text: In order to use cells, more related to the target cells in vivo, the monocytic cell line 3D4/31 was used to confirm the effect of the different cytokines on the number of PCV2-infected cells. The 3D4/31 cell line is a porcine monomyeloid cell lines that was established following transfection of primary porcine alveolar macrophage cultures with plasmid pSV3neo, carrying genes for neomycin resistance and SV40 large T antigen. (Weingartl et al. (2002) J Virol Methods. 10, 203-216). These cells were maintained in a 1:1 mixture of RPMI-1640 (Invitrogen) and DMEM (Invitrogen) supplemented with 10% fetal bovine serum, 0.3 mg/ml glutamine, 100 U/ml penicillin, 0.1 mg/ml streptomycin, 0.1 mg/ml kanamycin and 1% non-essential amino acids 100× (GIBCO BRL®, Grand Island, USA). These experiments were also performed in 96-well plates containing the same number of cells. Furthermore, to monitor the effect of IFN-gamma on the entry of PCV2 virion-like particles was determined, 3D4/31 cells were seeded at 2×10^5 cells/ml of medium onto microscopic slides mounted with an 8 well cell culture silicone chamber (Vivascience AG, Hanover). In all inoculations, the same PCV2-strain (Stoon-1010) was used at a multiplicity of infection of 0.01. The virus was diluted in MEM and inoculated on the cell cultures by incubating cells and virus for 1 hour at 37° C. After 1 hour, the inoculum was removed, the cultures were washed twice with MEM and new culture medium was added.
The influence of the cytokines on the infection of PCV2 in PK-15 and 3D4/31 cells was determined by adding two-fold-dilution series of the cytokines to the medium of the cells before, during or after the inoculation. IL-1, IL-6, […] and IFN-alpha were used in concentrations ranging from 0.25-250 Units/ml (U/ml), IFN-gamma was used in concentrations ranging from 0.25-1000 U/ml and IL-10 was used in concentrations from 0.13-125 U/ml. Cell cultures were either pre-treated with the cytokines for 24 hours before inoculation, treated during the inoculation or the cytokines were added in the medium after the inoculation. After 36 hours of incubation at 37° C. in an environment supplemented with 5% CO2, the cells were fixed by drying and frozen at −20° C. The plates were stained with an immuno-peroxydase monolayer assay (IPMA) as described by Sanchez et al. (2003, Vet Microbiol 95, 15-25) and the number of PCV2-positive cells was counted by light microscopy. In each plate a control was inoculated with an equal dose of mock-treated PCV2 (treated with MEM without cytokines). The number of infected cells in this well was used as the reference and all results were expressed as a ratio to this reference.

PCV2 in PK-15 cells = assay: Progeny PCV2 virus production in PK-15 cells with IFN-gamma; type: cell-based, Porcine circovirus 2
Description: The influence of IFN-gamma on the production of progeny virus in PCV2-infected cells was determined by inoculating PK-15 cells with the standard PCV2-stock. After the inoculation, culture medium was added supplemented with IFN-gamma (500 U/ml). At 0, 12, 24, 36, 48 and 72 hours post inoculation (hpi) the supernatant was collected. Subsequently the culture was washed once with 1 ml PBS. Both the supernatant and the washing fluid were centrifuged for 10 minutes at 15,000×g to pellet cells and debris. The centrifuged supernatant and washing fluids were combined and considered to contain the extracellular virus. Both pellets and cell cultures were freeze-thawed tree times and considered to contain the intracellular virus. Intra- and extracellular virus titres were determined by titration on PCV-negative PK-15 cells as described previously.

[2] = test system: PCV2 proteins in PK-15 cells; assay: Expression kinetics of PCV2 proteins (capsid, REP) in PK-15 cells, immunofluorescence; type: cell-based, Porcine circovirus 2
Description: To determine the timing and localisation of PCV2 proteins expression (Capsid protein and REP), PK-15 cells were seeded on glass cover slips and inoculated with PCV2. After inoculation, culture medium was added with or without 500 U/ml IFN-gamma. At 0, 12, 24, 36, 48 and 72 hpi the cells were fixed in methanol at −20° C. Afterwards, a triple immunofluorescence staining was performed to visualize both viral proteins and the cell nucleus. PCV2 capsid protein was detected using purified biotinylated porcine polyclonal anti-PCV2 immunoglobulins which only react with PCV2 capsid proteins. Bound porcine immunoglobulins were visualized with streptavidin conjugated Texas Red (molecular probes, Leiden, The Netherlands). In a second step, the REP protein was detected with a specific mouse monoclonal antibody (F210) visualized with goat-anti-mouse FITC (molecular probes, Leiden, The Netherlands). In a final step, the nuclei of the cells were visualized with Hoechst 33342 (Molecular Probes, Oreg., USA) at a concentration of 0.1 mg/ml. The number of cells with capsid and/or REP protein was counted and the localisation of viral antigens was monitored by fluorescence microscopy.

[3] = test system: PCV2 capsids in 3D4/31 cells; assay: Entry (internalization) of PCV2 recombinant capsids in 3D4/31 cells; type: cell-based, Porcine circovirus 2; conditions: 3D4/31 cells treated with IFN-gamma
Description: To study the internalization of recombinant capsids on 3D4/31, cells were washed with RPMI-1640 at 37° C. and then incubated with capsids at 37° C. for 15 minutes followed by washing of unbound capsids. Cells were then fixed with a 3% solution of paraformaldehyde (rPBS) for 10 minutes at 30, 60 and 120 minutes since the addition of capsids into the cells, washed with PBS, and permeabilized in a 0.1% Triton X-100 solution in rPBS. Capsids were stained by incubating the calls with a biotin-conjugated anti-PCV2 swine polyclonal antibody followed by streptavidin-FITC (Molecular Probes, Eugene, Oreg.).

EMC virus = conditions: porcine PK-15 cells infected with EMC virus; supplier leaflet, typical; cited from earlier work
[4] = treated (500 U/ml) and non-treated PK-15 cells

B1: IFN-gamma: Porcine interferon gamma purchased from R&D systems (protein, UniProt P17803 24-166, looked up)
Interferon gamma: QAPFFKEITILKDYFNASTSDVPNGGPLFLEILKNWKEESDKKIIQSQIVSFYFKFFEIFKDNQAIQRSMDVIKQDMFQRFLNGSSGKLNDFEKLIKIPVDNLQIQRKAISELIKVMNDLSPRSNLRKRKRSQTMFQGQRASK
increase in PCV2-positive cells ([1]; treated after inoculation): 523±115% | increase in PCV2-positive cells ([1]; treated before inoculation): 806±88% | increase in PCV2-positive cells ([1]; treated during inoculation): 214±16% | change in the number of PCV2-positive cells (in words) ([1]; 3D4/31 cells, any concentration, before, during or after inoculation): dose-dependent increase | total PCV2 production higher compared to non-treated cells (PCV2 in PK-15 cells; 500 U/ml after inoculation, 72 hpi): 1.3 log10 TCID50 | extracellular and intracellular virus production (in words) (PCV2 in PK-15 cells; 500 U/ml, compared to non-treated control cells): increased | influence on sequence of events of PCV2 protein expression (in words) ([2]; PK-15, 500 U/ml after inoculation): did not influence | first nuclear localisation of both proteins ([2]; both cultures): 24 hpi | first detection of REP protein [2, 4]: 24 hpi | first detection of capsid protein [2, 4]: 12 hpi | number of internalized virions (in words) [3]: significant increase | ED50 for anti-viral effect (EMC virus): 0.015 to 0.045 ng/mL
